Assay results reported in patent US6040160A, “Method of producing L-lysine by fermentation” (Ajinomoto Co., Inc., priority 1993, dated 2000).

B1: Wild type: wild type aspartokinase III (AKIII) of E. coli encoded by lysC on pLYSC1 (protein, UniProt P08660 2-449, looked up)
Lysine-sensitive …: SEIVVSKFGGTSVADFDAMNRSADIVLSDANVRLVVLSASAGITNLLVALAEGLEPGERFEKLDAIRNIQFAILERLRYPNVIREEIERLLENITVLAEAAALATSPALTDELVSHGELMSTLLFVEILRERDVQAQWFDVRKVMRTNDRFGRAEPDIAALAELAALQLLPRLNEGLVITQGFIGSENKGRTTTLGRGGSDYTAALLAEALHASRVDIWTDVPGIYTTDPRVVSAAKRIDEIAFAEAAEMATFGAKVLHPATLLPAVRSDIPVFVGSSKDPRAGGTLVCNKTENPPLFRALALRRNQTLLTLHSLNMLHSRGFLAEVFGILARHNISVDLITTSEVSVALTLDTTGSTSTGDTLLTQSLLMELSALCRVEVEEGLALVALIGNDLSKACGVGKEVFGVLEPFNIRMICYGASSHNLCFLVPGEDAEQVVQKLHSNLFE
B2: wild type DDPS: wild type dihydrodipicolinate synthase of E. coli (dapA product) (protein, UniProt P0A6L2 1-292, looked up)
4-hydroxy-tetrahydrodipicolina …: MFTGSIVAIVTPMDEKGNVCRASLKKLIDYHVASGTSAIVSVGTTGESATLNHDEHADVVMMTLDLADGRIPVIAGTGANATAEAISLTQRFNDSGIVGCLTVTPYYNRPSQEGLYQHFKAIAEHTDLPQILYNVPSRTGCDLLPETVGRLAKVKNIIGIKEATGNLTRVNQIKELVSDDFVLLSGDDASALDFMQLGGHGVISVTANVAARDMAQMCKLAAEGHFAEARVINQRLMPLHNKLFVEPNPIPVKWACKELGLVATDTLRLPMTPITDSGRETVRAALKHAGLL
B3: pdapAS24 (protein)
chain: MFTGSIVAIVTPMDEKGNVCRASLKKLIDYHVASGTSAIVSVGTTGESATLNHDEHADVVMMTLDLADGRIPVIAGTGANATAEAISLTQRFNDSGIVGCLTVTPYYNRPSQEGLYQYFKAIAEHTDLPQILYNVPSRTGCDLLPETVGRLAKVKNIIGIKEATGNLTRVNQIKELVSDDFVLLSGDDASALDFMQLGGHGVISVTTNVAARDMAQMCKLAAEEHFAEARVINQRLMPLHNKLFVEPNPIPVKWACKELGLVATDTLRLPMTPITDSGRETVRAALKHAGLL

Experiments:
Assay type in all cases: biochemical, E. coli
AKIII = AKIII enzyme activity and inhibition by L-lysine, cell-free extract of GT3 transformants
From the text: No. 24, No. 43, No. 48, No. 60, No. 80, No. 117, No. 126, No. 149, No. 150, No. 156, No. 158, No. 167, No. 169 and No. 172 were selected as representative strains of the aforementioned 14 groups. Mutant plasmids derived from pLYSC1 were recovered from each of them, and designated as pLYSC1*24, pLYSC1*43, pLYSC1*48, pLYSC1*60, pLYSC1*80, pLYSC1*117, pLYSC1*126, pLYSC1*149, pLYSC1*150, pLYSC1*156, pLYSC1*158, pLYSC1*167, pLYSC1*169 and pLYSC1*172, respectively. An AK completely deficient strain GT3 was transformed with them and the wild type pLYSC1. A cell-free extract was prepared from each of transformed strains, and the enzyme activity of AKIII was measured.
The cell-free extract (crude enzyme solution) was prepared as follows. A transformed strain was cultivated in a 2×TY medium, and collected at an OD660 of about 0.8. Cells were washed with 0.02 M KH2 PO4 (pH 6.75)-0.03 M β-mercaptoethanol under a condition of 0° C., and the cells were ruptured by sonication (0° C., 100 W, 30 minutes×4). A ruptured cell solution was centrifuged at 33 krpm for 1 hour under a condition of 0° C. to obtain a supernatant,to which ammonium sulfate was added to give 80% saturation. After centrifugation, a pellet was dissolved in 0.02 M KH2 PO4 (pH 6.75)-0.03 M β-mercaptoethanol, and stored at 0° C. overnight.
The enzyme activity of AKIII was measured in accordance with a method of Stadtman et al. (Stadtman, E. R., Cohen, G. N., LeBras, G., and Robichon-Szulmajster, H., J. Biol. Chem., 236, 2033 (1961)). Namely, a reaction solution having the following composition was incubated at 27° C. for 45 minutes, and an FeCl3 solution (2.8 N HCl 0.4 ml +12% TCA 0.4 ml +5% FeCl3. 6H2 O/0.1 N HCl 0.7 ml) was added to develop a color, which was centrifuged followed by measurement of absorbance of a supernatant at 540 nm. The activity was indicated by an amount of hydroxamic acid generated per minute (1 U=1 μmol/min). The molar absorption coefficient was 600. Potassium aspartate was removed from the reaction solution to be used as a blank.
Various concentrations of L-lysine were added to the enzyme reaction solution for measurement of the enzyme activity of AK, and the degree of inhibition by L-lysine was examined.
On the contrary, the mutant AKIII's obtained this time had various degrees of desensitization, however, inhibition by L-lysine was desensitized in all of 14 species. […] The specific activity per total protein, which might be affected by growth situations of cell and preparation of samples, was equal to or more than that of the wild type in almost all cases, in which there was little problem of decrease in activity due to the introduction of mutation (Table 3). […]

DDPS = DDPS enzyme activity and inhibition by L-lysine, cell-free extract of JE7627 transformants
Procedure: Mutant pdapA2's were recovered from the 36 strains described above. A dapA-deficient strain, JE7627 was transformed with them and the wild type pdapA2, respectively. A cell-free extract was prepared from each of the transformed strains, and the enzyme activity of DDPS was measured.
(§1) The cell-free extract (crude enzyme solution) was prepared as follows. A transformed strain was cultivated in a 2×TY medium (1.6% Bacto trypton, 1% Yeast extract, 0.5% NaCl), and collected at an optical density at 660 nm (OD660) of about 0.8. A cell pellet was washed with 0.85% NaCl under a condition of 0° C., and suspended in 20 mM potassium phosphate buffer (pH 7.5) containing 400 mM KCl. The cells were ruptured by sonication (0° C., 200 W, 10 minutes). A ruptured cell solution was centrifuged at 33 krpm for 1 hour under a condition of 0° C. to obtain a supernatant to which ammonium sulfate was added to give 80% saturation to be stored at 0° C. overnight followed by centrifugation. A pellet was dissolved in 20 mM potassium phosphate buffer (pH 7.5)-400 mM KCl.
(§2) The enzyme activity of DDPS was measured in accordance with a method of Yugari et al. (Yugari, Y. and Gilvarg, C., J. Biol. Chem., 240, 4710 (1962)). Namely, the absorbance of a reaction solution having the following composition was measured at 37° C. with a spectrophotometer at a wavelength of 270 nm in a time-dependent manner. And generated dihydrodipicolinate was measured. Sodium pyruvate was removed from the reaction system to be used as a blank.
Various concentrations of L-lysine were added to the enzyme reaction solution during measurement of the enzyme activity of DDPS, and the degree of inhibition by L-lysine was examined.

[1] = system: DDPS (dihydrodipicolinate synthase); test: DDPS activity of crude enzyme solutions from W3110(tyrA) strains and inhibition by L-lysine
Procedure: as §1, with “A pellet was dissolved in 20 mM potassium phosphate buffer (pH 7.5)-400 mM KCl.” left out
as §2, with “Sodium pyruvate was removed from the reaction system to be used as a blank.” left out
Crude enzyme solutions were prepared from W3110(tyrA), W3110(tyrA)/pdapA and W3110(tyrA)/pdapA* in the same manner as in Example 1, the DDPS (dihydrodipicolinate synthase) activity was measured, and the degree of inhibition of the DDPS activity by L-lysine was examined.

[2] = in the presence of 5 mM of L-lysine
[3] = various concentrations of L-lysine, FIG. 2

Molecule | Inhibition of AKIII by L-lysine (AKIII; 5 mM of L-lysine) | Specific activity (AKIII; 1 U=1 μmol/min hydroxamic acid) | Degree of desensitization of inhibition (AKIII; AK activity in the presence of 100 mM of L-lysine with respect to AK activity in the absence of L-lysine) | Inhibition of AKIII by L-lysine (AKIII; [2]) | Inhibition of DDPS by L-lysine (DDPS; [2]) | Inhibition of DDPS by L-lysine (DDPS; [3]) | Specific activity relative to the wild type enzyme (DDPS) [1] | Specific activity of DDPS as compared with the wild type (DDPS)
B1 | about 100% | 0.0247 U/mg protein | 0% | about 100% |  |  |  | 
B2 |  |  |  |  | ~80% | suffered inhibition by L-lysine |  | 
B3 |  |  |  |  |  | desensitized | about 1/2 | lowered a little
